Key:
Experiment in all cases: peptide SPOT array, c-Myc-tagged receptor at 1 uM or 100 nM, anti-c-Myc-Cy3
Bcl-xL, Q07817 = molecular target: Bcl-xL, Q07817
Bfl-1, Q16548 = molecular target: T1, Bfl-1, Q16548
T1 chain: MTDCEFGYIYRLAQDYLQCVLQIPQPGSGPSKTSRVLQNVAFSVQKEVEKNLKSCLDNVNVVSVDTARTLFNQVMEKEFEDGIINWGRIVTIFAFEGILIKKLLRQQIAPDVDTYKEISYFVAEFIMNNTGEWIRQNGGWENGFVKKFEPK

Mcl-1, Q07820 = molecular target: T2, Mcl-1, Q07820
T2 chain: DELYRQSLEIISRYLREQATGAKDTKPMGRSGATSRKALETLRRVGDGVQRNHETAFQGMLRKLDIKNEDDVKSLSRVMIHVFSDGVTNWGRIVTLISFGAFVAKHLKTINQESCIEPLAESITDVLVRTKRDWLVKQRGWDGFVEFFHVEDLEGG

Bcl-xL, Q07817, sequence (Q07817 1-209): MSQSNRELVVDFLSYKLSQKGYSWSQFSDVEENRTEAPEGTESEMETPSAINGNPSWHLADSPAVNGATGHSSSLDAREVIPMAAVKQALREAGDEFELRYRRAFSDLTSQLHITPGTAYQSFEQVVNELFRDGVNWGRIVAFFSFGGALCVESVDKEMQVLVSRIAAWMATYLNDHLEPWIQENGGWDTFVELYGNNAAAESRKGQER

Row | Binder | SPOT signal as a fraction of Bim BH3's signal on the same receptor and array (Bcl-xL, Q07817) | SPOT signal as a fraction of Bim BH3's signal on the same receptor and array (Bfl-1, Q16548) | SPOT signal as a fraction of Bim BH3's signal on the same receptor and array (Mcl-1, Q07820)
1 | QEQEQHVPFDIHTYLDQLVSRFPQLN [NCAPH2] | 0.06 | 0.04 | 0.04
2 | LTETSLISGNLHRILDITSCSVLWLN [FBXW5] | 0.06 | 0.07 | 0.04
3 | QRKHEGFERDLAALLDKVNSLGETAE [SPTAN1] | 0.1 | 0.08 | 0.11
4 | KLALEQRCREDRARGRRLEETLPRRI | 0.83 | 0.43 | 0.44
5 | VLLTLLVAAVLRCQGQDVQEAGSCVQ [COL2A1] | 0.06 | 0.04 | 0.04
6 | PYLSKHRADRDRRLGDFLNQESFDLA [SMPD2] | 0.49 | 0.56 | 0.51
7 | MSLFLRVVFSFTMFGDLFEEEYSTVS [USP40] | 0.07 | 0.04 | 0.07
8 | SHFVACMTAILNQMGDQHYSFYIETF | 0.07 | 0.05 | 0.06
9 | SKEVAILCSFLLGLGDSCFNTQLLSI | 0.09 | 0.04 | 0.05
10 | AGYELLIQKFLSLYLDQIDMHRKFVV [ISOC1] | 0.09 | 0.05 | 0.07
11 | QCPIFRLGDIFRETLDNFSDVAIQGG [P2RX7] | 0.06 | 0.04 | 0.05
12 | HHSSQEMSSEDREYADSFGKCPGGRN [PCYT2] | 0.05 | 0.03 | 0.04
13 | THFLDEEVKLIKKMLDHLTNLHRLGG [FTL] | 0.07 | 0.04 | 0.05
14 | LMARPAVALHFQSILDGFKEAVRYVL [SOS2] | 0.48 | 0.44 | 0.84
15 | SQEPLEKAQLLALVLDQLIQSHHYAA [MCF2L2] | 0.06 | 0.03 | 0.04
16 | HTALENCASLDCIRADELQEALTSHC [MYO3A] | 0.05 | 0.03 | 0.03

Row | Binder | SPOT signal as a fraction of Bim BH3's signal on the same receptor and array (Bcl-xL, Q07817) | SPOT signal as a fraction of Bim BH3's signal on the same receptor and array (Bfl-1, Q16548) | SPOT signal as a fraction of Bim BH3's signal on the same receptor and array (Mcl-1, Q07820)
17 | PALLVHWAKCDQKMGRGLNSSYDQQE | 0.38 | 0.26 | 0.41
18 | EQWAREIGAQDRRMADDLNAQYERRR | 0.05 | 0.02 | 0.07
19 | VTLLSEVEKMLSNFLDCVQYKEIVKN [SYNE1] | 0.11 | 0.06 | 0.06
20 | SHFVACMTAIDNQMGDQHYSFYIETF | 0.08 | 0.05 | 0.05
21 | AIILCNVCGNLCTDLDRFLHLHRRTK [MYCBP2] | 0.51 | 0.28 | 0.51
22 | SDIRDDISEQDRHVGRTVRGHPRKKL [TMEM184C] | 0.45 | 0.14 | 0.13
23 | SKEVAILCSFLLGLLDSCFNTQLLSI | 0.09 | 0.04 | 0.05
24 | QAGPVSSGLALRKLLDRVQLLNLLVT [CCDC57] | 0.74 | 0.34 | 0.42
25 | PALLVHWAKCLQKMGRGLNSSYDQQE | 0.89 | 0.47 | 0.51
26 | EQWAREIGAQLRRMLDDLNAQYERRR | 0.19 | 0.09 | 0.11
27 | TAAAAYRGAHLRGRLRTVYNTFRAAA [XXXX] | 2.37 | 1.55 | 1.64
28 | KLALEQRCRELRARLRRLEETLPRRI | 1.14 | 1.04 | 0.72
29 | KIETTPESRYDAQIGDSVSLTCSTTG [VCAM1] | 0.05 | 0.03 | 0.03
30 | ISSYMVLAPVFGYLLDRYNRKYLMCG [SPNS1] | 1.11 | 0.78 | 0.73
31 | SQGKHGFTMAMNAFGDMTNEEFRQMM [CTSL2] | 0.08 | 0.08 | 0.09
32 | TSRINEVQVNLSLLLDDLLLPAQSTL [SPHKAP] | 0.05 | 0.03 | 0.04

Reference: publication PMC4072508, “Genome-Wide Prediction and Validation of Peptides That Bind Human Prosurvival Bcl-2 Proteins” (PLoS Computational Biology, 2014)
